Read-outs that look alike come from different tables or passages of the source.
What was measured:
[1] = molecular target: T1, human CD105 (R&D Systems, Catalog No. 1097-EN) (human, UniProt P17813 26-586); assay: competition ELISA on captured human CD105; competitor biotinylated chimeric anti-CD105
T1 construct: Captured on the plate by mouse anti-human CD105 (Southern Biotechnologies 9811-01); also called endoglin
T1 sequence (looked up): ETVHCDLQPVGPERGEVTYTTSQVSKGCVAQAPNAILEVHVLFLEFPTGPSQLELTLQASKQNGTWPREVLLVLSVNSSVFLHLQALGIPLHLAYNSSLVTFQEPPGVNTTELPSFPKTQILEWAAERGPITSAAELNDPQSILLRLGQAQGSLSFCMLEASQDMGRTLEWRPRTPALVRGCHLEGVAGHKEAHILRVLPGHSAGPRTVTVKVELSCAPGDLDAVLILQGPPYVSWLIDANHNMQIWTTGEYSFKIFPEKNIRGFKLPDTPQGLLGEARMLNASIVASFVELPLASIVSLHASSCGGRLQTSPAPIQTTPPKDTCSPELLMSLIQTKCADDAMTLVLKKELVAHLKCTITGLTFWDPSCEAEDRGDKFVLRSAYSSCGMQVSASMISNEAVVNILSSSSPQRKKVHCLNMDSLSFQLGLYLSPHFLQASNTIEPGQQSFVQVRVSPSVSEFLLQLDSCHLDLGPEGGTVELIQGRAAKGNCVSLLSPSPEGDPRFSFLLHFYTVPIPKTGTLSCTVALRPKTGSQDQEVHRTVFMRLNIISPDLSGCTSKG
Experimental: Antibodies were tested in a competition ELISA for binding to CD105 against biotinylated chimeric anti-CD105. Briefly, chimeric anti-CD105 was biotinylated using a micro-biotinylation kit (Sigma, Catalog No. BTAG-1KT) following the manufacturer's instructions. […] Binding of the biotinylated chimeric antibody was detected via streptavidin-HRP (Sigma, Catalog No. 55512) and TMB substrate (Sigma, Catalog No. T0440). OD450 nm values were measured on a Dynex MRX TCII plate reader. The results of the competition analysis are illustrated in FIGS. 7 and 8. […] To allow for comparisons within and between experiments, IC50 values of humanized or humanized/deimmunized variants were normalized against the reference antibody that was included on each plate to give a value for the fold difference. IC50 values are relative to chimeric anti-CD105 and are representative of three experiments. Summary ELISA data are presented in Table 1 and include antibody expression levels […]) as assayed in saturated static cultures.

[2] = molecular target: T1, human CD105 (R&D Systems, Catalog No. …); assay: ELISA with OD450 falling against test antibody concentration (competition format of paragraph 712: biotinylated chimeric anti-CD105 on captured human CD105; the legend says only 'binding assay data')
[3] = molecular target: T1, human CD105 (R&D Systems, Catalog No. …); assay: as above; remark: listed apart in the source
[4] = molecular target: T1, human CD105 (R&D Systems, Catalog No. …); assay: as above; remark: listed apart in the source

Row | Relative IC50 (fold of chimeric anti-endoglin antibody) [1] | further results | Binder
1 | 0.76 fold relative to chimeric | IC50 (read off the curve) [2]: ~0.1 µg/mL; IC50 (read off the curve) [3]: ~0.1 µg/mL | VK2AAVH1Q (antibody, V domains shown, IgG1 heavy chain, kappa light chain) VH: EVQLVESGGGLVKPGGSLRLSCAASGFTFSDAWMDWVRQAPGKGLEWVGEIRSQASNHATYYAESVKGRFTISRDDSKNTLYLQMNSLKTEDTAVYYCTRWRRFFDSWGQGTLVTVSS VL: DIQLTQSPSSLSASVGDRATITCRASSSVSYMHWYQQKPGKAPKPWAYATSNLASGVPSRFSGSGSGTDYTLTISSLQPEDFATYYCQQWSSNPLTFGGGTKVEIK
2 | 0.84 fold relative to chimeric |  | VK2SAVH1A2 (antibody, V domains shown, IgG1 heavy chain, kappa light chain) VH: EVQLVESGGGLVKPGGSLRLSCAASGFTFSDAWMDWVRQAPGKGLEWVGEARSKASNHATYYAESVKGRFTISRDDSKNTLYLQMNSLKTEDTAVYYCTRWRRFFDSWGQGTLVTVSS VL: DIQLTQSPSSLSASVGDRVTISCRASSSVSYMHWYQQKPGKAPKPWAYATSNLASGVPSRFSGSGSGTDYTLTISSLQPEDFATYYCQQWSSNPLTFGGGTKVEIK
3 | 1.02 fold relative to chimeric |  | VK2ASVH1R (antibody, V domains shown, IgG1 heavy chain, kappa light chain) VH: EVQLVESGGGLVKPGGSLRLSCAASGFTFSDAWMDWVRQAPGKGLEWVGEIRSRASNHATYYAESVKGRFTISRDDSKNTLYLQMNSLKTEDTAVYYCTRWRRFFDSWGQGTLVTVSS VL: DIQLTQSPSSLSASVGDRATITCRASSSVSYMHWYQQKPGKAPKPWIYASSNLASGVPSRFSGSGSGTDYTLTISSLQPEDFATYYCQQWSSNPLTFGGGTKVEIK
4 | 1.03 fold relative to chimeric |  | VK2SSVH1A2 (antibody, V domains shown, IgG1 heavy chain, kappa light chain) VH: EVQLVESGGGLVKPGGSLRLSCAASGFTFSDAWMDWVRQAPGKGLEWVGEARSKASNHATYYAESVKGRFTISRDDSKNTLYLQMNSLKTEDTAVYYCTRWRRFFDSWGQGTLVTVSS VL: DIQLTQSPSSLSASVGDRVTISCRASSSVSYMHWYQQKPGKAPKPWIYASSNLASGVPSRFSGSGSGTDYTLTISSLQPEDFATYYCQQWSSNPLTFGGGTKVEIK
5 | 0.87 fold relative to chimeric |  | VK2SAVH1Q (antibody, V domains shown, IgG1 heavy chain, kappa light chain) VH: EVQLVESGGGLVKPGGSLRLSCAASGFTFSDAWMDWVRQAPGKGLEWVGEIRSQASNHATYYAESVKGRFTISRDDSKNTLYLQMNSLKTEDTAVYYCTRWRRFFDSWGQGTLVTVSS VL: DIQLTQSPSSLSASVGDRVTISCRASSSVSYMHWYQQKPGKAPKPWAYATSNLASGVPSRFSGSGSGTDYTLTISSLQPEDFATYYCQQWSSNPLTFGGGTKVEIK
6 | 0.96 fold relative to chimeric |  | VK2SAVH1S (antibody, V domains shown, IgG1 heavy chain, kappa light chain) VH: EVQLVESGGGLVKPGGSLRLSCAASGFTFSDAWMDWVRQAPGKGLEWVSEIRSKASNHATYYAESVKGRFTISRDDSKNTLYLQMNSLKTEDTAVYYCTRWRRFFDSWGQGTLVTVSS VL: DIQLTQSPSSLSASVGDRVTISCRASSSVSYMHWYQQKPGKAPKPWAYATSNLASGVPSRFSGSGSGTDYTLTISSLQPEDFATYYCQQWSSNPLTFGGGTKVEIK
7 | 1.04 fold relative to chimeric |  | VK2ASVH1Q (antibody, V domains shown, IgG1 heavy chain, kappa light chain) VH: EVQLVESGGGLVKPGGSLRLSCAASGFTFSDAWMDWVRQAPGKGLEWVGEIRSQASNHATYYAESVKGRFTISRDDSKNTLYLQMNSLKTEDTAVYYCTRWRRFFDSWGQGTLVTVSS VL: DIQLTQSPSSLSASVGDRATITCRASSSVSYMHWYQQKPGKAPKPWIYASSNLASGVPSRFSGSGSGTDYTLTISSLQPEDFATYYCQQWSSNPLTFGGGTKVEIK
8 | 0.62 fold relative to chimeric |  | VK2SSVH1R (antibody, V domains shown, IgG1 heavy chain, kappa light chain) VH: EVQLVESGGGLVKPGGSLRLSCAASGFTFSDAWMDWVRQAPGKGLEWVGEIRSRASNHATYYAESVKGRFTISRDDSKNTLYLQMNSLKTEDTAVYYCTRWRRFFDSWGQGTLVTVSS VL: DIQLTQSPSSLSASVGDRVTISCRASSSVSYMHWYQQKPGKAPKPWIYASSNLASGVPSRFSGSGSGTDYTLTISSLQPEDFATYYCQQWSSNPLTFGGGTKVEIK
9 | 1.41 fold relative to chimeric |  | VK2ASVH1A (antibody, V domains shown, IgG1 heavy chain, kappa light chain) VH: EVQLVESGGGLVKPGGSLRLSCAASGFTFSDAWMDWVRQAPGKGLEWVAEIRSKASNHATYYAESVKGRFTISRDDSKNTLYLQMNSLKTEDTAVYYCTRWRRFFDSWGQGTLVTVSS VL: DIQLTQSPSSLSASVGDRATITCRASSSVSYMHWYQQKPGKAPKPWIYASSNLASGVPSRFSGSGSGTDYTLTISSLQPEDFATYYCQQWSSNPLTFGGGTKVEIK
10 | 0.61 fold relative to chimeric | IC50 (read off the curve) [2]: ~0.1 µg/mL; IC50 (read off the curve) [4]: ~0.1 µg/mL | VK2AAVH1R (antibody, V domains shown, IgG1 heavy chain, kappa light chain) VH: EVQLVESGGGLVKPGGSLRLSCAASGFTFSDAWMDWVRQAPGKGLEWVGEIRSRASNHATYYAESVKGRFTISRDDSKNTLYLQMNSLKTEDTAVYYCTRWRRFFDSWGQGTLVTVSS VL: DIQLTQSPSSLSASVGDRATITCRASSSVSYMHWYQQKPGKAPKPWAYATSNLASGVPSRFSGSGSGTDYTLTISSLQPEDFATYYCQQWSSNPLTFGGGTKVEIK
11 | 0.77 fold relative to chimeric |  | VK2SAVH1R (antibody, V domains shown, IgG1 heavy chain, kappa light chain) VH: EVQLVESGGGLVKPGGSLRLSCAASGFTFSDAWMDWVRQAPGKGLEWVGEIRSRASNHATYYAESVKGRFTISRDDSKNTLYLQMNSLKTEDTAVYYCTRWRRFFDSWGQGTLVTVSS VL: DIQLTQSPSSLSASVGDRVTISCRASSSVSYMHWYQQKPGKAPKPWAYATSNLASGVPSRFSGSGSGTDYTLTISSLQPEDFATYYCQQWSSNPLTFGGGTKVEIK
12 | 1.21 fold relative to chimeric |  | VK2SSVH1S (antibody, V domains shown, IgG1 heavy chain, kappa light chain) VH: EVQLVESGGGLVKPGGSLRLSCAASGFTFSDAWMDWVRQAPGKGLEWVSEIRSKASNHATYYAESVKGRFTISRDDSKNTLYLQMNSLKTEDTAVYYCTRWRRFFDSWGQGTLVTVSS VL: DIQLTQSPSSLSASVGDRVTISCRASSSVSYMHWYQQKPGKAPKPWIYASSNLASGVPSRFSGSGSGTDYTLTISSLQPEDFATYYCQQWSSNPLTFGGGTKVEIK
13 | 0.49 fold relative to chimeric |  | VK2SAVH1A (antibody, V domains shown, IgG1 heavy chain, kappa light chain) VH: EVQLVESGGGLVKPGGSLRLSCAASGFTFSDAWMDWVRQAPGKGLEWVAEIRSKASNHATYYAESVKGRFTISRDDSKNTLYLQMNSLKTEDTAVYYCTRWRRFFDSWGQGTLVTVSS VL: DIQLTQSPSSLSASVGDRVTISCRASSSVSYMHWYQQKPGKAPKPWAYATSNLASGVPSRFSGSGSGTDYTLTISSLQPEDFATYYCQQWSSNPLTFGGGTKVEIK
14 | 1.31 fold relative to chimeric |  | VK2ASVH1S (antibody, V domains shown, IgG1 heavy chain, kappa light chain) VH: EVQLVESGGGLVKPGGSLRLSCAASGFTFSDAWMDWVRQAPGKGLEWVSEIRSKASNHATYYAESVKGRFTISRDDSKNTLYLQMNSLKTEDTAVYYCTRWRRFFDSWGQGTLVTVSS VL: DIQLTQSPSSLSASVGDRATITCRASSSVSYMHWYQQKPGKAPKPWIYASSNLASGVPSRFSGSGSGTDYTLTISSLQPEDFATYYCQQWSSNPLTFGGGTKVEIK
15 | 1.21 fold relative to chimeric |  | VK2SSVH1Q (antibody, V domains shown, IgG1 heavy chain, kappa light chain) VH: EVQLVESGGGLVKPGGSLRLSCAASGFTFSDAWMDWVRQAPGKGLEWVGEIRSQASNHATYYAESVKGRFTISRDDSKNTLYLQMNSLKTEDTAVYYCTRWRRFFDSWGQGTLVTVSS VL: DIQLTQSPSSLSASVGDRVTISCRASSSVSYMHWYQQKPGKAPKPWIYASSNLASGVPSRFSGSGSGTDYTLTISSLQPEDFATYYCQQWSSNPLTFGGGTKVEIK
